Assay results reported in the supplement of paper PMC10201428.
± gives the standard deviation of the averaged measurements.

How the values were obtained:
[1] = system: VchCAST RNA-guided transposition machinery (E. coli BL21(DE3) host, lacZ target); experiment: relative integration efficiency (T-LR orientation) vs wild-type transposon end (log2 (normalized fold change)); transposon end mutated: left end; higher = more efficient transposition
Description: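 Pooled, barcoded VchCAST (Tn6677) mini-transposon donor libraries; each variable transposon-end sequence sits in a fixed pDonor mini-transposon context (10-bp barcode and cargo not included). Left- or right-end libraries were co-transformed with pEffector (TniQ-Cascade, TnsABC, lacZ crRNA, T7, 0.1 mM IPTG) into E. coli BL21(DE3) and grown 18 h at 37 C. T-LR and T-RL junction amplicons were sequenced; output/input barcode fold change was normalised to the mean of four wild-type barcodes and log2-transformed. Two biological replicates; zero-count/undetected variants carry floor values (-10 / -15), censored here. Barcode uncoupling by PCR recombination adds noise.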

[2] = system: VchCAST RNA-guided transposition machinery (E. coli BL21(DE3) host, lacZ target); experiment: relative integration efficiency (T-RL orientation) vs wild-type transposon end (log2 (normalized fold change)); transposon end mutated: left end; higher = more efficient transposition
Outline: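 A T7-driven effector plasmid encoding a CRISPR array, tniQ-cas8-cas7-cas6 and tnsA-tnsB-tnsC was co-transformed into E. coli BL21(DE3) together with a pUC57 mini-transposon donor holding barcoded pools of 1549 left-end or 1849 right-end variants. Transformants were plated with 0.1 mM IPTG at 37°C for 18 h. Illumina sequencing of PCR-amplified input plasmids and genomic integration junctions gave barcode abundances, and relative integration efficiency is their output/input fold change, normalised to reference barcodes and log-transformed.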

Row | Sequence | relative integration efficiency (log2) [1] | relative integration efficiency (log2) [2]
1 | AATGTTGTTGATGCAACCATAAAGTGATATTTAATAATTATTTATAATCAGCCCAGGCCAACACCCCACCAACGCGCGGTCGCGAGACACCCCACCAACGCCTGGTCGCGGGGGTGTCCGATCTGATTTCAGCAAAACTACTGCAGTAAGAA | -4.09 ± 1.1 | -6.41 ± 1.4
2 | AATGTTGTTGATGCAACCATAAAGTGATATTTAATAATTATTTATAATCAGCAACTTAACCACAAAACAACCATATATTGATATCTCACAAACAACCATAAGTTGATATTTTTGTGAATCGAGTATTTCAGCAAAACTACTGCAGTAAGAAA | -0.446 ± 0.92 | -1.69 ± 0.68
3 | AATGTTGTTGATGCAACCATAAAGTGATATTTAATAATTATTTATAATCAGCAACTTAACCACAAAACAACCATAAAATGATAATTAACAAAAGTTGGTATTCAACTATAAAATGTGAATCGAGTATTTCAGCAAAACTACTGCAGTAAGAA | -1.31 ± 1.8 | -2.67 ± 1.1
4 | AATGTTGTTGATGCAACCATAAAGTGATATTTAATAATTATTTATAATCAGCAACTTAACCACAAAACAACCATATATTGATACAAAACAACCATAAGTTGATATTTTTGTGAATCGAGTATTTCAGCAAAACTACTGCAGTAAGAAAGTTA | -2.08 ± 1.7 | -4.34 ± 0.99
5 | AATGTTGTTGATGTGCAACCATAAAGTGATATTTAATAATTATTTATAATCAGCAACTTAACCACAAAACAACCATATATTGATATCTCACAAAACAACCATAAGTTGATATTTTTGTGAATCGAGTATTTCAGCAAAACTACTGCAGTAAG | < -10 | -6.45 ± 0.8
6 | AATGTTGTTGATGTGTCAACCATAAAGTGATATTTAATAATTATTTATAATCAGCAACTTAACCACAAAACAACCATATATTGATATCTCACAAAACAACCATAAGTTGATATTTTTGTGAATCGAGTATTTCAGCAAAACTACTGCAGTAA | -2.19 ± 1.3 | -1.14 ± 0.25
7 | AATGTTGTTGATGCAACCATAAAGTGATATTTAATAATTATTTATAATCAGCAACTTAACCACAACCACCAACGCGCGGTCGCGAGACACCCCACCAACGCCTGGTCGCGGGGGTGTCCGATCTGATTTCAGCAAAACTACTGCAGTAAGAA | -4.35 ± 3.3 | -5.83 ± 1.9
8 | AATGTTGTTGATGCAACCATAAAGTGATATTTAATAAGGCGGGCGCCGACTACCAGGCCAACACCCCACCAACGCGCGGTCGCGAGACACCCCACCAACGCCTGGTCGCGGGGGTGTCCGATCTGATTTCAGCAAAACTACTGCAGTAAGAA | -3.73 ± 1.5 | -7.05 ± 1.6
9 | AATGTTGTTGATGCAACCATAAAGTGATATTTAATAATTATTTATAATCAGCAACTTAACCACAAAACAACCATATATTGATATCTCACAAAACAACCATAAGTTGATCGGGGGTGTCCGATCTGATTTCAGCAAAACTACTGCAGTAAGAA | -1.32 ± 0.59 | -1.03 ± 0.49
10 | AATGTTGTTGATGGTTGGTATTTCACTATAAATATAATTATTTATAATCAGCAACTTAACCACAAAAGTTGGTATATAACTATAGAGACAAAAGTTGGTATTCAACTATAAAATGTGAATCGAGTATTTCAGCAAAACTACTGCAGTAAGAA | < -10 | -8.52 ± 0.29
11 | AATGTTGTTGATGCAACCATAAAGTGATATTTAATAACAACCATATATTGATATCTCACAAAACAACCATAAGTTGATATTTTTTATTTATAATCAGCAACTTAACCACAAAATGTGAATCGAGTATTTCAGCAAAACTACTGCAGTAAGAA | -1.89 ± 1 | -3.74 ± 0.68
12 | AATGTTGTTGATGCAACCATAAAGTGATATTTAAAGTACAGCGCGACTGAACTCATCATTAAAACGACAACCATATATTGATATCTCACAAAACAACCATAAGTTGATATTTTTGTGAATCGAGTATTTCAGCAAAACTACTGCAGTAAGAA | -0.487 ± 1.5 | -2.4 ± 1.2
13 | AATGTTGTTGATGCAACCATAAAGTGATATTTAATAATTATTTATAATCAGCAACTTAACCACAAAACAACCATAAGTTGATATTTTACAAAAGTTGGTATTCAACTATAAAATGTGAATCGAGTATTTCAGCAAAACTACTGCAGTAAGAA | -0.485 ± 0.68 | -2.49 ± 1.1
14 | AATGTTGTTGATGCAACCATAAAGTGATATTTAACTCTCTTCTTTAGCAGTCTAGTCTATTGAAACTCAACCATATATTGATATCTCACAAAACAACCATAAGTTGATATTTTTGTGAATCGAGTATTTCAGCAAAACTACTGCAGTAAGAA | -5.31 ± 0.24 | -3.73 ± 1.2
15 | AATGTTGTTGATGCAACCATAAAGTGATATTTAATAATTATTTACAACCATATATTGATATCTCTAATCAGCAACTTAACCACAAAAACAAAACAACCATAAGTTGATATTTTTGTGAATCGAGTATTTCAGCAAAACTACTGCAGTAAGAA | -2.24 ± 2.1 | -4.75 ± 1.3
16 | AATGTTGTTGATGCAACCATAAAGTGATATTTAATAATTATTTATAATCAGCAACTTAACCACAAAACAACCATATATTGATATCTCACAAAACAACCATAAGTTTCGCGGGGGTGTCCGATCTGATTTCAGCAAAACTACTGCAGTAAGAA | -2.11 ± 1.5 | -2.22 ± 0.95
17 | AATGTTGTTGATGCAACCATAAAGTGATATTTAATAATTATTTATAATCAGCAACTTAACCACAAAAACCAACGCGCGGTCGCGAGACACCCCACCAACGCCTGGTCGCGGGGGTGTCCGATCTGATTTCAGCAAAACTACTGCAGTAAGAA | -4.28 ± 1 | -7.55 ± 2
18 | AATGTTGTTGATGCAACCATAAAGTGATATTTAATAATTATTTATAATCAGCAACTTAACCACACAACCATATATTGATATCTCAAAACAAAACAACCATAAGTTGATATTTTTGTGAATCGAGTATTTCAGCAAAACTACTGCAGTAAGAA | -3.44 ± 2.9 | -2.19 ± 0.45
19 | AATGTTGTTGATGCAACCATAAAGTGATATTTACAACCATATATTGATATCTCTCACAACCATAAGTTGATATTTTTGTGAATCGAGTATTTCAGCAAAACTACTGCAGTAAGAAAGTTACTTCGTGGTATGGGAGGATCAAGGAGCCAATA | 3.04 ± 0.96 | -2.79 ± 0.97
20 | AATGTTGTTGATGCAACCATAAAGTGATATTTAATAATTATTTATAATCAGCAACTTAACCACAAAACAACCATAAAGTGATATTTAACAAAAGTTGGTATTCAACTATAAAATGTGAATCGAGTATTTCAGCAAAACTACTGCAGTAAGAA | -0.811 ± 0.85 | -2.53 ± 1.4
21 | AATGTTGTTGATGCAACCATAAAGTGATATTTAATAATTATCAACCATAAAGTGATATTTAACTTAACAACCATATATTGATATCTCACAAAACAACCATAAGTTGATATTTTTGTGAATCGAGTATTTCAGCAAAACTACTGCAGTAAGAA | -4.24 ± 1.2 | -3.5 ± 0.95
22 | AATGTTGTTGATGCAACCATAAAGTGATATTTACTAGGATTCATGTCAACGTGCAAGCTTAGTTCGACAACCATATATTGATATCTCACAAAACAACCATAAGTTGATATTTTTGTGAATCGAGTATTTCAGCAAAACTACTGCAGTAAGAA | -5.46 ± 2.5 | -5.16 ± 1
23 | AATGTTGTTGAAACAACCATAAAGTGATAACAACGAATCAATTAAAATCATAGGCTTAATCGAAAAACAACCATATCTTGATATCGCATAAAACAACCATAAGTTGATATTTTGGTGAAACGAGTATTTCAGCAAAACTACTGCAGTAAGAA | -0.44 ± 0.53 | 0.0434 ± 0.29
24 | TTTTGTGTTGAAACAACCATAAAGTGATAACAAATAATTATTTATAATCAGCAACTTAACCACAAAACAACCATATCTTGATATCGCATAAAACAACCATAAGTTGATATTTTGGTGAAAAGGATATTCCAACCTTCATAGTTTAGTAAGAA | -1.23 ± 0.8 | -0.416 ± 0.29
25 | AATGTTGTTGATGCAACCATAAAGTGATATTTAATAACTTCGTATAGGATACTTTATACGAAGTTATCAACCATATATTGATATCTCACAAAACAACCATAAGTTGATATTTTTGTGAATCGAGTATTTCAGCAAAACTACTGCAGTAAGAA | -3.99 ± 1.5 | -3.72 ± 1.3
26 | AATGTTGTTGATGCAACCATAAAGTGATATTTAATAATTATTTATAATCAGCAACTTAACCACAAAACAACCATATATTGATATCACAAAACAACCATAAGTTGATATTTTTGTGAATCGAGTATTTCAGCAAAACTACTGCAGTAAGAAAG | -0.718 ± 0.95 | -2.64 ± 0.93
27 | AATGTTGTTGATGCAACCATAAAGTGATATTTAATAATTATTTATAATCAGCAACTTAACCACAAAACAACCATATATTGATATCTCACAAAACAACCATAAGTGTCGCGGGGGTGTCCGATCTGATTTCAGCAAAACTACTGCAGTAAGAA | -1.82 ± 0.77 | -2.05 ± 0.76
28 | AATGTTGTTGATGCAACCATAAAGTGATATTTGCTAGCATTGTACCTAGGACTGAGCTAGCCATAAACAACCATATATTGATATCTCACAAAACAACCATAAGTTGATATTTTTGTGAATCGAGTATTTCAGCAAAACTACTGCAGTAAGAA | -4.41 ± 1.3 | -3.5 ± 0.79
29 | AATGTTGTTGATGCAACCATATTCACATATTTAATAATTATTTATAATCAGCAACTTAACCACAAAACAACCATAATAACATATCTCACAAAACAACCATATCAACATATTTTTGTGAATCGAGTATTTCAGCAAAACTACTGCAGTAAGAA | < -10 | -7.41 ± 0.33
30 | TTTTGTGTTGAAACAACCATAAAGTGATATTTACGAATCAATTAAAATCATAGGCTTAATCGAAAAACAACCATATCTTGATATCGCATAAAACAACCATAAGTTGATATTTTGGTGAAAAGGATATTCCAACCTTCATAGTTTAGTAAGAA | -0.00585 ± 0.47 | 0.179 ± 0.12
